From patent publication US20160046707A1 (EISAI R AND D MANAGEMENT, published 2016)

Tests used:
[1] = target: T1, recombinant human CCL16 (human, UniProt O15467 24-120); test: SPR (Biacore): antibody captured on anti-human Fc, 100 nM chemokine injected; ratio = chemokine binding level over antibody capture level
T1 construct: also called HCC-4
T1 sequence (looked up): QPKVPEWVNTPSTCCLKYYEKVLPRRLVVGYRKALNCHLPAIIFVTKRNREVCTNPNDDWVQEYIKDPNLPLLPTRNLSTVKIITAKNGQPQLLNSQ
Protocol: (§1) We used Biacore™ analysis to test whether HC2/LK3 and HC2/LC3 cross-react with CCL16. Monoclonal mouse anti-human Fc was immobilized on all four flow cells of a CM5 chip at a flow rate of 25 μl/min with HBS-EP buffer containing 0.2 mg/mL BSA. Subsequently, 50 μl of a 1 μg/ml solution of chimeric, HC2/LC3, or HC2/LK3 antibody in HBS-EP buffer with 0.2 mg/ml BSA was injected over flow cells 2, 3, and 4, respectively. 150 μl of a 100 nM solution of CCL20 or CCL16 in HBS-EP buffer (or buffer alone) with 0.2 mg/ml BSA was then injected over all four flow cells at a flow rate of 40 μl/min. Dissociation followed for 20 min. Flow cell 1 (anti-human Fc antibody alone) was used as a reference for all flow cells.
(§2) Under these conditions, human CCL20 bound to the chimeric (FIG. 13A), HC2/LC3 (FIG. 13B), and HC2/LK3 (FIG. 13B) antibodies captured on the chip with similar strength.

[2] = target: T2, mouse CCL20-secreted alkaline phosphatase (SEAP) fusion (mouse, UniProt O89093 28-97); test: ELISA (fluorescent HRP substrate): CCL20-SEAP captured on anti-alkaline phosphatase in 5-fold dilutions from 20 nM (x axis, nM), antibody at 1 ug/ml
T2 construct: Expressed in HEK293E, used as culture supernatant; also called SEAP-tagged mouse CCL20; mCCL20; not shown: secreted alkaline phosphatase (SEAP), cDNA from pSEAP-Enhancer vector (Clontech)
T2 sequence: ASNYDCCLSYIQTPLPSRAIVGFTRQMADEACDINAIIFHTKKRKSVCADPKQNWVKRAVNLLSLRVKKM
Protocol: To test whether the chimeric and humanized antibodies can bind to mouse, cynomolgus, or rhesus macaque CCL20 orthologs, we used ELISA assays as illustrated in FIG. 15. Recombinant secreted alkaline phosphatase (SEAP)-chemokine fusion proteins were engineered as described in Example 2, expressed and purified for all of the CCL20 orthologs tested. Nunc MaxiSorb flat-bottom black plates were coated with 1 μg/ml mouse anti-placental alkaline phosphatase antibody (Pierce, cat# MA1-19354) in 50 mM sodium bicarbonate, pH 9.4, overnight at 4° C. Plates were then blocked using 1× phosphate buffered saline with Tween-20 (PBST) with 5% bovine serum albumin (BSA) for 2 hours at room temperature. 20 nM SEAP-CCL20 fusion proteins were serially diluted 5-fold in Opti-MEM medium (Invitrogen). Chimeric and humanized (HC2/LC3 and HC2/LK3) antibodies were diluted to 1 μg/ml in 1×PBST with 5% BSA, added to the plates, and incubated for 1 hr at room temperature. The plates were then washed with 1×PBST with 5% BSA three times. […] QuantaBlu fluorescent HRP substrate (Pierce cat#15169) was added for detection of bound antibody by measuring fluorescence in a Molecular Devices M5 (Excitation 325 nm/Emission 420 nm) plate reader.
While the hamster anti-mouse CCL20 antibody 2F5-5 MAb bound mouse CCL20 with a 50% effective dose (EC₅₀) of 64 pM (data not shown), neither the chimeric nor humanized anti-human CCL20 antibodies bound detectably to mouse CCL20 or rat CCL20 under the conditions described above. By contrast, both the chimeric and humanized antibodies effectively bound to human, rhesus, and cynomolgus CCL20 (FIGS. 16A-C, 17A and B).

[3] = target: T1, recombinant human CCL16; test: SPR (Biacore): antibody captured on anti-human Fc, 100 nM chemokine injected
Protocol: as §1, §2

[4] = target: T3, human CCL20-secreted alkaline phosphatase (SEAP) fusion (human, UniProt P78556 27-96); test: ELISA on CCL20-SEAP, Abs 450; x axis 'ug/ml' in 4-fold steps down from 10, taken as the antibody concentration as in FIG. 11C
T3 construct: also called hCCL20; human CCL20-SEAP; not shown: secreted alkaline phosphatase (SEAP), cDNA from pSEAP-Enhancer vector (Clontech)

[5] = target: T4, cynomolgus CCL20-secreted alkaline phosphatase (SEAP) fusion (cynomolgus monkey); test: as above
T4 construct: also called cCCL20; cynomolgus CCL20-SEAP; not shown: the SEAP reporter (cDNA from Clontech pSEAP-Enhancer) and its junction to CCL20
T4 chain: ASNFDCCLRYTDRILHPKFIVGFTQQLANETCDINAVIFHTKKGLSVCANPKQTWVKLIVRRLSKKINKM

[6] = target: rat CCL20-secreted alkaline phosphatase (SEAP) fusion (rat, UniProt P97884 27-96; P05187 23-511); test: as above
[7] = target: T5, rhesus CCL20-secreted alkaline phosphatase (SEAP) fusion (rhesus monkey); test: as above
T5 construct: also called rCCL20; rhesus CCL20-SEAP; not shown: the SEAP reporter (cDNA from Clontech pSEAP-Enhancer) and its junction to CCL20
T5 chain: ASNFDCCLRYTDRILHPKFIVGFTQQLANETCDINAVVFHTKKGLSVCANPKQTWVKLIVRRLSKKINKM

T3 sequence (P78556 27-96): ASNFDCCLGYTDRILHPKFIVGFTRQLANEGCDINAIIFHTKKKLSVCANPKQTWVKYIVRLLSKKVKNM
rat CCL20-secreted alkaline phosphatase (SEAP) fusion, sequence (P97884 other isoform, or with tags, fused parts or gaps): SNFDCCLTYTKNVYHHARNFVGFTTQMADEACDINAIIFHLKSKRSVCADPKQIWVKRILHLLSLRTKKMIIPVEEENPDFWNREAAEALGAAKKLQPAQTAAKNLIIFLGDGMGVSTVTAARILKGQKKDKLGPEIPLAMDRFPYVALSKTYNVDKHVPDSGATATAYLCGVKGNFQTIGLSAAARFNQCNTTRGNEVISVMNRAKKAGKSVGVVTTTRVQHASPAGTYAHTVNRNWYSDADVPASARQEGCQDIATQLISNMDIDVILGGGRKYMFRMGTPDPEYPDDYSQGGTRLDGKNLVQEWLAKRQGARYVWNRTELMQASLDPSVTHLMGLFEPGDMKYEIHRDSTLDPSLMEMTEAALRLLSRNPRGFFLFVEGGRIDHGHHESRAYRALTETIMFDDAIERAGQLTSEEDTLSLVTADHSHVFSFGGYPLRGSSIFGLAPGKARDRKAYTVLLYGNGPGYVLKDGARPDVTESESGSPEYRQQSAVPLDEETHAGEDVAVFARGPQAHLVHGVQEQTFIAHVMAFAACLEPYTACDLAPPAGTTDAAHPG

Binder | ReqCk/ReqAb ratio [1] | binding result [2] | binding result [3] | EC50 (read off the curve) [4] [µg/mL] | EC50 (read off the curve) [5] [µg/mL] | binding result [6] | EC50 (read off the curve) [7] [µg/mL]
chimeric 36F7C10 antibody (36F7C10-hFc) (antibody, V domains shown, also called chimeric 36F710; Chimeric MAb) VH: QVQLQQPGAELVKPGASVKMSCKASGYTFTNYWMHWVKQRPGQGLEWIGVIDPSDSYTTYNQKFKGKATLTVDTSSSTAYMQLSSLTSEDSAVYYCTRGNYGVDYAMDYWGQGTSVTVSS VL: DIQMTQSPASLSASVGETVTITCGASENIYGALNWYQRKQGKSPQLLIYGATNLADGMSSRFSGSGSGRQYSLKISSLHPDDVATYYCQNVLITPYTFGGGTKLEIK | 0.006 | no binding (tested: 20 nM) | no binding (tested: 100 nM) | – | – | – | –
humanized anti-human CCL20 antibody 36LK3/36HC2 (antibody, human IgG1, kappa, V domains shown, expressed in HEK293 cells; also called HC2/LK3; HC2LK3) VH: QVQLVQSGAEVKKPGASVKVSCKASGYTFTNYWMHWVRQAPGQGLEWMGVIDPSDSYTTYAQKFQGRVTMTVDTSTSTVYMELSSLRSEDTAVYYCARGNYGVDYAMDYWGQGTLVTVSS VL: DIQMTQSPSSLSASVGDRVTITCGASENIYGALNWYQRKPGKAPKLLIYGATNLADGVPSRFSGSGSGRDYTLTISSLQPEDFATYYCQNVLITPYTFGQGTKLEIKR | 0.006 | no binding (tested: 20 nM) | no binding (tested: 100 nM) | ~0.02 | ~0.02 | no binding (tested: 10 ug/ml) | ~0.02
humanized anti-human CCL20 antibody 36LC3/36HC2 (antibody, human IgG1, kappa, V domains shown, expressed in HEK293 cells; also called HC2/LC3; HC2LC3) VH: QVQLVQSGAEVKKPGASVKVSCKASGYTFTNYWMHWVRQAPGQGLEWMGVIDPSDSYTTYAQKFQGRVTMTVDTSTSTVYMELSSLRSEDTAVYYCARGNYGVDYAMDYWGQGTLVTVSS VL: DIQMTQSPSSLSASVGDRVTITCRASENIYGALNWYQQKPGKAPKLLIYGATNLADGVPSRFSGSGSGRQYSLTISSLQPEDFATYYCQNVLITPYTFGGGTKLEIKR | 0.005 | no binding (tested: 20 nM) | – | ~0.02 | ~0.02 | no binding (tested: 10 ug/ml) | ~0.02
